Data reported in PMC9283627, “Auxotrophic and prototrophic conditional genetic networks reveal the rewiring of transcription factors in Escherichia coli”.

Target: T1, YneJ (Escherichia coli (K-12 strain not …, UniProt P77309 1-293))
T1 sequence: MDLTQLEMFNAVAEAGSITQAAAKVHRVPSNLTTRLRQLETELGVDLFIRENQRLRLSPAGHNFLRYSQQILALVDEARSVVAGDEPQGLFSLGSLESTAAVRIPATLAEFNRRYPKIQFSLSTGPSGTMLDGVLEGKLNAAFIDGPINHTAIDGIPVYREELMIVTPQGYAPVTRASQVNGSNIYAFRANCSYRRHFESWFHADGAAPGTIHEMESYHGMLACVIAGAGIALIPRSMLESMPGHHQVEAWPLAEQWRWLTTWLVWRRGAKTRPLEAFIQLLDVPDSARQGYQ
Assay: fluorescence polarization; 2 mM Gln; PBS (pH 6.5), 0.5 mM EDTA, 7 mM MgCl2, 100 mM KCl, 5 mM phosphate, herring sperm DNA, 50 C; 10 nM labeled dsDNA
Details: protein: recombinant; tags: N-terminal His6 (Methods; called YneJ-His6 in text); chain copies: 4; label: 6-FAM on S41 (printed at the 5' end; Methods say 3' end); blunt

B1: sad-yneJ consensus motif 21 bp (dsDNA)
DNA 1: GGGTTCTCGATTCGTGAAGGG
DNA 2: CCCTTCACGAATCGAGAACCC
binding result: binds
